The source of these data is patent publication US20240294646A1.

Test [1] deals with C1q (human) (UniProt P02745). The experiment in a line: cell-based or functional assay.
The target in test [2] is Soluble FcγRIIb extracellular domain with C-terminal 10×His tag (UniProt P31994). The experiment in a line: SPR (Protocol 2): one-armed antibody captured on immobilised HER2, soluble receptor as analyte; fold over wild-type.
The target of test [3] is Soluble FcγRIIaR extracellular domain with C-terminal 10×His tag (UniProt P12318). The test is described as above.
Sequence of Soluble FcγRIIaR extracellular domain with C-terminal 10×His tag (P12318 other isoform, or with tags, fused parts or gaps): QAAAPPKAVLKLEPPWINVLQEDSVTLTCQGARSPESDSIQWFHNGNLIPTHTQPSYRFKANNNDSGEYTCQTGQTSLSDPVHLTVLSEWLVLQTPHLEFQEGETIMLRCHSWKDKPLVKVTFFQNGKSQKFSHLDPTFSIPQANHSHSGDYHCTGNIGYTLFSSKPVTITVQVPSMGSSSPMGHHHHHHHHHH
Test [4] deals with Soluble FcγRIIb extracellular domain with C-terminal 10×His tag (UniProt P31994). The experiment in a line: SPR (Protocol 2); ratio of FcγRIIb fold to FcγRIIaR fold over wild-type.
Test [5] has as its target C1q (human) (UniProt P02745). The experiment in a line: C1q ELISA, antibody coated.
Test [6] deals with FcγRIIaR (UniProt P12318). The experiment in a line: SPR; trastuzumab FSA variant against FSA WT v21653.
Sequence of FcγRIIaR (P12318 34-217): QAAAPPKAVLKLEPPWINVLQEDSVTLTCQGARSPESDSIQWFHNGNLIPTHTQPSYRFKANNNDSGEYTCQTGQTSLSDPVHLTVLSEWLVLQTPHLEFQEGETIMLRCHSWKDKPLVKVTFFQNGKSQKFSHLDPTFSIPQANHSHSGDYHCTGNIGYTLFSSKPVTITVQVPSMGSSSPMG
The target in test [7] is FcγRIIb (UniProt P31994). The experiment in a line: SPR; trastuzumab FSA variant against FSA WT v21653.
Target sequence in this assay (P31994 43-217): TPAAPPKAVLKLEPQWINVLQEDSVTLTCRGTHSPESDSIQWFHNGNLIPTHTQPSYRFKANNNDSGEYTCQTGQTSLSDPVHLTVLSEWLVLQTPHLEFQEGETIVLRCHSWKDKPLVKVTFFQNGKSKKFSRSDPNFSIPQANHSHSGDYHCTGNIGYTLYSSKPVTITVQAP
The target in test [8] is C1q (human) (UniProt P02745). The experiment in a line: ELISA; antibody coated, human C1q added, signal as % of WT. Background: An ELISA detects its analyte on a solid surface through an enzyme-linked reagent.
In test [9] the target is FcγRIIb (UniProt P31994). The experiment in a line: SPR; ratio of IIb-fold to IIaR-fold, FcγRIIaR as comparison receptor. (In SPR one partner is held on a chip, and binding of the other changes the refractive index at the surface.)
Target sequence in this assay (P31994 43-217): as above
Test [10] deals with FcγRIIaR (UniProt P12318). The experiment in a line: SPR (Protocol 1), one-armed antibody captured on HER2, receptor as analyte; ratio to wild-type.
Test [11] has as its target FcγRIIb (UniProt P31994). The description is as above.
Target sequence in this assay (P31994 43-217 limits assumed): as the sequence (P31994 43-217) above
For test [12], the target named is FcγRIIb (UniProt P31994). The experiment in a line: SPR (Protocol 1); FcγRIIb ratio over FcγRIIaR ratio.
Target sequence in this assay (P31994 43-217 limits assumed): as the sequence (P31994 43-217) above

Sequence of C1q (human) (P02745 23-245 limits assumed, chain 1 of 3): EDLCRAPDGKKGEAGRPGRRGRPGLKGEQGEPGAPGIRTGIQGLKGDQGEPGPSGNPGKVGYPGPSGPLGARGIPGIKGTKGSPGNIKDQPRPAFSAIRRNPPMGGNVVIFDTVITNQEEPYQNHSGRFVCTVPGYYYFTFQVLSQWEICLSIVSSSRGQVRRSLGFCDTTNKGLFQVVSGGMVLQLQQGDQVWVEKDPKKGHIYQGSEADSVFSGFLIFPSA
Sequence of C1q (human) (P02746 28-253 limits assumed, chain 2 of 3, further chain): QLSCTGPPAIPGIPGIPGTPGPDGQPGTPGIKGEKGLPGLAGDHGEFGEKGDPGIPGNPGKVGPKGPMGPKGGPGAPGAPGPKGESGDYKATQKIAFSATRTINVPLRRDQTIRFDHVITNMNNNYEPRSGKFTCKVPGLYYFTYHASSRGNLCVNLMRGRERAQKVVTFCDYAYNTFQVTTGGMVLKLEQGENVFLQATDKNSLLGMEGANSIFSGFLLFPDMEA
Sequence of C1q (human) (P02747 29-245 limits assumed, chain 3 of 3, further chain): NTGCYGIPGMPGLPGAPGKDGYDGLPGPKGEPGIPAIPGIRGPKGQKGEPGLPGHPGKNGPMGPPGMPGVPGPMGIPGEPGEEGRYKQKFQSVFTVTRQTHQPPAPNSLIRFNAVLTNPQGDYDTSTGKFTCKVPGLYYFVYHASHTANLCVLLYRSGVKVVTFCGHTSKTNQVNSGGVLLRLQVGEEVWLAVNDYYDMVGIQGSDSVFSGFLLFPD
Sequence of Soluble FcγRIIb extracellular domain with C-terminal 10×His tag (P31994 other isoform, or with tags, fused parts or gaps): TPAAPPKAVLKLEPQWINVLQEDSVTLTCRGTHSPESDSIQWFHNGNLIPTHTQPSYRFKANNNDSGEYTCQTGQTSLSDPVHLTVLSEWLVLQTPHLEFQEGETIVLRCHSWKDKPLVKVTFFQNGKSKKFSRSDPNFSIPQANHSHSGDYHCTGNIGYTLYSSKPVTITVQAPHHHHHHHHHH

As to “anti-CD40 full-size antibody (Chi Lob 7/4 Fab) with wild-type CH2, v21653”, in test [1], the CDC assay on Ramos cells: Lysis (%) Mean, at highest test antibody concentration came out at 77.8% and the CDC assay on Ramos cells: Potency (ng/mL) Mean, antibody concentration above which >20% cell lysis was achieved is 67.7 ng/mL.

Consider “Variant 22116 (one-armed trastuzumab antibody, heterodimeric IgG1 Fc; A: L234D_G236N_S267A_K326D / B: G236D_S239D_V266L_S267A_H268D_K326D)”, for which, in test [2], the IIb-fold (fold change in affinity over wild-type) was found to be 31.9 fold. Moreover, the IIaR-fold (fold change in affinity over wild-type) in [3] turned out to be 2.6 fold. Further, the IIb/IIaR Selectivity (IIb-Fold/IIaR-Fold) in [4] stood at 12.1.

In test [2], “Variant 22120 (one-armed trastuzumab antibody, heterodimeric IgG1 Fc; A: L234F_G236N_H268Q_K274Q_A327G_A330K_P331S_K326D / B: L234F_G236D_S239D_V266L_S267A_H268D_K274Q_A327G_A330S_P331S_K326D)” gave an IIb-fold (fold change in affinity over wild-type) of 85.8 fold. In addition, in test [3], the IIaR-fold (fold change in affinity over wild-type) was determined as 9.7 fold. In addition, in test [4], the IIb/IIaR Selectivity (IIb-Fold/IIaR-Fold) was 8.8.

As usually defined, the EC50 is the concentration giving half of the maximal effect. The low end stands for a more potent agent, the high end for a less potent agent. As for “anti-CD19 (4G7) full-size antibody, control SELF (S267E_L328F)”, the 50% effective concentration (EC50) in test [5] came out at 360 pM.

On to “Variant 22117 (one-armed trastuzumab antibody, heterodimeric IgG1 Fc; A: L234D_G236N_H268Q_K274Q_A327G_A330K_P331S / B: L234F_G236D_S239D_V266L_S267A_H268D_K274Q_A327G_A330S_P331S)”, for which, in test [2], the IIb-fold (fold change in affinity over wild-type) amounted to 28.7 fold. For the same substance, the IIaR-fold (fold change in affinity over wild-type) in test [3] stood at 2.3 fold. For the same substance, the IIb/IIaR Selectivity (IIb-Fold/IIaR-Fold) in test [4] was determined as 12.7.

Regarding “anti-CD40 full-size antibody (Chi Lob 7/4 Fab) with Fc negative variant (L234A, L235A, D265S)”, the CDC assay on Ramos cells: Lysis (%) Mean, at highest test antibody concentration in [1] worked out at 5.13%.

In test [2], “Variant 19540, Lead 3 (one-armed trastuzumab antibody, heterodimeric IgG1 Fc; A: L234D_G236N_S267A / B: G236D_S239D_V266L_S267A_H268D)” gave an IIb-fold (fold change in affinity over wild-type) of 25.4 fold. For the same substance, the IIaR-fold (fold change in affinity over wild-type) in test [3] was 1.8 fold. The IIb/IIaR Selectivity (IIb-Fold/IIaR-Fold) in test [4] came out at 14.

Substance “Variant 19585, Lead 2 (one-armed trastuzumab antibody, heterodimeric IgG1 Fc; A: L234F_G236N_H268Q_K274Q_A327G_A330K_P331S / B: L234F_G236D_S239D_V266L_S267A_H268D_K274Q_A327G_A330S_P331S)” came in with an IIb-fold (fold change in affinity over wild-type) in [2] of 49.5 fold. Also, the IIaR-fold (fold change in affinity over wild-type) in [3] came to 4.1 fold. Further, the IIb/IIaR Selectivity (IIb-Fold/IIaR-Fold) in test [4] came out at 12.

Regarding “Variant 22119 (one-armed trastuzumab antibody, heterodimeric IgG1 Fc; A: L234F_G236N_H268Q_K274Q_A327G_A330K_P331S / B: L234F_G236D_S239D_V266L_S267I_H268D_K274Q_A327G_A330S_P331S)”, the IIb-fold (fold change in affinity over wild-type) in test [2] came out at 6.2 fold. Besides, the IIaR-fold (fold change in affinity over wild-type) in [3] was determined as 0.8 fold. In addition, in test [4], the IIb/IIaR Selectivity (IIb-Fold/IIaR-Fold) worked out at 7.9.

Regarding “Variant 22131 (one-armed trastuzumab antibody, heterodimeric IgG1 Fc; A: L234F_G236N_S267A / B: G236D_S239D_V266L_S267A_H268D)”, the IIb-fold (fold change in affinity over wild-type) in test [2] was found to be 45.1 fold. In [3], the IIaR-fold (fold change in affinity over wild-type) was found to be 4.3 fold. In addition, the IIb/IIaR Selectivity (IIb-Fold/IIaR-Fold) in test [4] turned out to be 10.4.

In test [5], “anti-CD19 (4G7) full-size antibody, control v12 (symmetrical E233D_G237D_P238D_H268D_P271G_A330R)” came in with a C1q - Variant Binding Relative to WT (%) of 6.72% and a C1q Concentration at Onset of Binding of 2.84 nM.

In [5], “anti-CD19 (4G7) full-size antibody, wild-type CH2 (variant 21653)” registered an EC50 of 310 pM.

In test [5], “anti-CD19 (4G7) full-size antibody, Fc negative variant (L234A_L235A_D265S)” yielded a C1q - Variant Binding Relative to WT (%) of 0.61% and a C1q Concentration at Onset of Binding of 29.6 nM.

As to “anti-CD40 (Chi Lob 7/4) full-size antibody, wild-type CH2 (variant 21653)”, in test [5], the C1q Concentration at Onset of Binding came out at 0.41 nM and the half-maximal effective concentration (EC50) came to 1490 pM.

For the substance “anti-CD40 (Chi Lob 7/4) full-size antibody, control v12 (symmetrical E233D_G237D_P238D_H268D_P271G_A330R)”, the C1q - Variant Binding Relative to WT (%) in test [5] was determined as 0%.

Regarding “Variant 32270 (trastuzumab FSA; chain A E272Y_strat2, chain B G237L_strat2) (antibody)”, the IIaR-fold (fold change in affinity over wild-type) in test [6] is 11 fold over WT. Moreover, the IIb-fold (fold change in affinity over wild-type) in test [7] was 196 fold over WT. The C1q Binding (% WT) in test [8] was -1 % WT. Also, in test [9], the IIb Selectivity (IIb-Fold/IIaR-Fold) amounted to 18.

In turn, “anti-CD40 (Chi Lob 7/4) full-size antibody, Fc negative variant (L234A_L235A_D265S)” registered a C1q - Variant Binding Relative to WT (%) in test [5] of 0%.

In the case of “anti-HER2 (trastuzumab) full-size antibody, wild-type CH2 (variant 21653)”, in test [5], the C1q Concentration at Onset of Binding came out at 0.16 nM and the EC50 came to 880 pM.

For “one-armed trastuzumab antibody (Scaffold 2), chain A L235D, chain B H268Q_K274Q”, the Ka,mut/Ka,WT in test [10] came to 1.03; in test [11] it was 2.24. Further, in test [12], the Selectivity IIb/IIaR came out at 2.2.

With “anti-CD40 full-size antibody (Chi Lob 7/4 Fab) with control Fc SELF (S267E_L328F)”, in [1], the CDC assay on Ramos cells: Lysis (%) Mean, at highest test antibody concentration is 78.2%; the CDC assay on Ramos cells: Normalized Potency Mean was 93.6 % of WT; the CDC assay on Ramos cells: Potency (ng/mL) Mean, antibody concentration above which >20% cell lysis was achieved worked out at 166 ng/mL.

Consider “Variant 32271 (trastuzumab FSA; chain A G237L_strat2, chain B G237L_strat2) (antibody)”, for which, in [6], the IIaR-fold (fold change in affinity over wild-type) worked out at 10 fold over WT. In [7], this substance yielded an IIb-fold (fold change in affinity over wild-type) of 251 fold over WT. In addition, the C1q Binding (% WT) in [8] came to 3 % WT. In addition, in test [9], the IIb Selectivity (IIb-Fold/IIaR-Fold) stood at 26.

Consider “anti-CD40 (Chi Lob 7/4) full-size antibody, control SELF (S267E_L328F)”, for which, in test [5], the C1q - Variant Binding Relative to WT (%) stood at 50.4%, the C1q Concentration at Onset of Binding is 0.73 nM and the concentration giving a half-maximal response (EC50) is 4730 pM.

For “Variant 32266 (trastuzumab FSA; chain A S239G_strat1, chain B G330*K_strat1) (antibody)”, in test [6], the IIaR-fold (fold change in affinity over wild-type) is 30 fold over WT. In addition, the IIb-fold (fold change in affinity over wild-type) in [7] was found to be 1150 fold over WT. Also, the C1q Binding (% WT) in [8] is 219 % WT. Besides, in test [9], the IIb Selectivity (IIb-Fold/IIaR-Fold) turned out to be 38.

Regarding “Variant 32254 (trastuzumab FSA; chain A S239H_strat1, chain B D329*I_F328*Y_strat1) (antibody)”, the IIaR-fold (fold change in affinity over wild-type) in test [6] is 3 fold over WT. In test [7], this substance returned an IIb-fold (fold change in affinity over wild-type) of 159 fold over WT. In test [8], the C1q Binding (% WT) is 159 % WT. The IIb Selectivity (IIb-Fold/IIaR-Fold) in test [9] was 47.

In the case of “Variant 22115 (one-armed trastuzumab antibody, heterodimeric IgG1 Fc; A: L234D_G236N_S267A_H268Q_K274Q_A327G_A330K_P331S / B: G236D_S239D_V266L_S267I_H268D_L234F_K274Q_A327G_A330K_P331S)”, in test [2], the IIb-fold (fold change in affinity over wild-type) is 2.6 fold. For the same substance, the IIaR-fold (fold change in affinity over wild-type) in [3] came out at 0.4 fold. Moreover, the IIb/IIaR Selectivity (IIb-Fold/IIaR-Fold) in test [4] came to 5.9.

“Variant 32274 (trastuzumab FSA; chain A P329A_strat2, chain B G237L_strat2) (antibody)”: the IIaR-fold (fold change in affinity over wild-type) in test [6] was 4 fold over WT. Besides, in test [7], the IIb-fold (fold change in affinity over wild-type) turned out to be 95 fold over WT. In addition, the C1q Binding (% WT) in test [8] stood at 2 % WT. Moreover, in test [9], the IIb Selectivity (IIb-Fold/IIaR-Fold) worked out at 26.

Turning to “anti-CD40 full-size antibody (Chi Lob 7/4 Fab) with control Fc v12 (symmetrical E233D_G237D_P238D_H268D_P271G_A330R)”, in [1], the CDC assay on Ramos cells: Lysis (%) Mean, at highest test antibody concentration was found to be 7.28%.

As to “Variant 32272 (trastuzumab FSA; chain A K330T_strat2, chain B G237L_strat2) (antibody)”, in test [6], the IIaR-fold (fold change in affinity over wild-type) turned out to be 9 fold over WT. Also, the IIb-fold (fold change in affinity over wild-type) in test [7] came out at 164 fold over WT. For the same substance, the C1q Binding (% WT) in test [8] stood at 3 % WT. In test [9], the IIb Selectivity (IIb-Fold/IIaR-Fold) worked out at 18.

“Variant 32267 (trastuzumab FSA; chain A S239H_strat1, chain B G330*K_strat1) (antibody)”: in test [6], the IIaR-fold (fold change in affinity over wild-type) stood at 25 fold over WT. This substance also returned an IIb-fold (fold change in affinity over wild-type) in test [7] of 803 fold over WT. In addition, the C1q Binding (% WT) in test [8] was 201 % WT. Moreover, the IIb Selectivity (IIb-Fold/IIaR-Fold) in test [9] amounted to 33.

In the case of “Variant 32278 (trastuzumab FSA; chain A S267A_strat2, chain B G237L_strat2) (antibody)”, the IIaR-fold (fold change in affinity over wild-type) in test [6] came to 9 fold over WT. The IIb-fold (fold change in affinity over wild-type) in test [7] amounted to 155 fold over WT. The C1q Binding (% WT) in test [8] is 1 % WT. The IIb Selectivity (IIb-Fold/IIaR-Fold) in [9] came to 17.
